These results are taken from publication doi:10.1101/2021.09.16.460650 (bioRxiv, 2021).

The data set deals with the molecule itself. In words: non-reducing SDS-PAGE with western blot. In general terms: In western blotting, separated proteins are transferred to a membrane and probed.

B1: N-terminally arginylated calreticulin (natural protein, human (endogenous in DLD-1), UniProt P27797 18-417, looked up)
chain: REPAVYFKEQFLDGDGWTSRWIESKHKSDFGKFVLSSGKFYGDEEKDKGLQTSQDARFYALSASFEPFSNKGQTLVVQFTVKHEQNIDCGGGYVKLFPNSLDQTDMHGDSEYNIMFGPDICGPGTKKVHVIFNYKGKNVLINKDIRCKDDEFTHLYTLIVRPDNTYEVKIDNSQVESGSLEDDWDFLPPKKIKDPDASKPEDWDERAKIDDPTDSKPEDWDKPEHIPDPDAKKPEDWDEEMDGEWEPPVIQNPEYKGEWKPRQIDNPDYKGTWIHPEIDNPEYSPDPSIYAYDNFGVLGLDLWQVKSGTIFDNFLITNDEAYAEEFGNETWGVTKAAEKQMKDKQDEEQRLKEEEEDKKRKEEEEAEDKEDDEDKDEDEEDEEDKEEDEEEDVPGQAKDEL
modifications: arginyl group added at the mature (signal sequence removed) NH2-terminus, Glu-18
One may read the stoichiometry N as a count of units in the complex or per binding partner. For B1, the “stoichiometry N” value amounted to 2.

B2: calreticulin (natural protein, human (endogenous in DLD-1), UniProt P27797 18-417, looked up)
chain: EPAVYFKEQFLDGDGWTSRWIESKHKSDFGKFVLSSGKFYGDEEKDKGLQTSQDARFYALSASFEPFSNKGQTLVVQFTVKHEQNIDCGGGYVKLFPNSLDQTDMHGDSEYNIMFGPDICGPGTKKVHVIFNYKGKNVLINKDIRCKDDEFTHLYTLIVRPDNTYEVKIDNSQVESGSLEDDWDFLPPKKIKDPDASKPEDWDERAKIDDPTDSKPEDWDKPEHIPDPDAKKPEDWDEEMDGEWEPPVIQNPEYKGEWKPRQIDNPDYKGTWIHPEIDNPEYSPDPSIYAYDNFGVLGLDLWQVKSGTIFDNFLITNDEAYAEEFGNETWGVTKAAEKQMKDKQDEEQRLKEEEEDKKRKEEEEAEDKEDDEDKDEDEEDEEDKEEDEEEDVPGQAKDEL
As for B2, the “stoichiometry N” value worked out at 2.
